Tests used:
[1] = test system: Aedes aegypti female mosquitoes, Rockefeller strain; test: CDC bottle bioassay with deltamethrin, insecticide-susceptible Rockefeller strain; assay type: in vivo; details: diagnostic dosage 2 μg/mL of deltamethrin; Rockefeller strain adult females
Description: (§1) FIGS. 5A-C are graphs illustrating the dose-response curves for 3- to 5-day-old Aedes aegypti female mosquitoes on insecticide-susceptible Rockefeller strain (FIG. 5A) and on insecticide-resistant Rio de Janeiro strain (FIG. 5B). Mosquitoes were exposed to different concentrations of deltamethrin in 250-mL glass bottles for up to 24 hours and the percentage of mortality for each time point is shown. FIG. 5C, comparison of the mortality rates of female mosquitoes from Rockefeller (Rock) and Rio de Janeiro (RJ) strains exposed to 2 μg/mL of deltamethrin for different time-points. Data represent mean values of three replicates with standard deviation.
(§2) Mosquitoes were taken from an Ae. aegypti colony of the Rockefeller strain or from a mosquito field population of Ae. aegypti isolated from urban area of Rio de Janeiro, Brazil. Both lineages were reared continuously in the laboratory at 28° C. and 70-80% relative humidity. Adult mosquitoes were maintained in a 10% sucrose solution, and the adult females were fed with sheep blood for egg laying. The larvae were reared on dog/cat food unless stated otherwise.
(§3) Bottles were prepared following the Brogdon and McAllister (1998) protocol [Brogdon and McAllister (1998) Emerg Infect Dis 4:605-613]. […] At 15, 30 and 45 min intervals, the number of live and dead mosquitoes in each bottle was recorded. […]

[2] = test system: Aedes aegypti female mosquitoes, Rio de Janeiro strain; test: CDC bottle bioassay with deltamethrin, insecticide-resistant Rio de Janeiro strain; assay type: in vivo
Description: as §1, §2, §3

[3] = test system: Ae. aegypti Rockefeller strain; test: Oviposition assay after larval dsRNA soaking plus feeding; assay type: in vivo, Aedes aegypti; details: larvae soaked 24 h in 0.5 μg/μL dsRNA, fed twice with agarose plug containing dsRNA; 15 engorged females per cage; vs water control
Description: FIG. 12 is a flowchart illustration depicting introduction of dsRNA into mosquito larvae via soaking with different doses of “naked” dsRNA plus additional larvae feeding with food-containing dsRNA. Step a) 100 larvae from A. aegypti Rockefeller strain (3rd instar) were soaked for 24 hours with the respective dsRNAs (concentration range from 0.02-0.5 μg/μL) or only in water and were then fed 2 times with food plus agarose 2% containing dsRNA until they reach adult stage (Step b). Step c) The adults arising were allowed to copulate for 3-5 days. Step d) mosquitoes were fed with defibrinated sheep blood. Step e) after blood feeding 15 fully-engorged females were transferred into 3 small cages to be assayed for oviposition. Step f) the total number of laid eggs and the percentage of hatched eggs were counted. FIGS. 13A-B are graphs illustrating larvae from Ae. aegypti Rockefeller strain (3rd instar) soaked for 24 hours in 0.5 μg/μL of Aubergine (Aub) or Argonaute-3 (Ago) dsRNAs or water only. […] (FIG. 13A) The total number of laid eggs and the percentage of hatched eggs were counted (FIG. 13B). […]
(§4) Five days after the blood meal, an ovipositon cup was place inside each cage containing 15 females to allow the females to lay their eggs. […] The number of eggs laid was counted and used to check the viability and egg hatching rate.

[4] = test system: Ae. aegypti Rockefeller strain; test: Egg hatching rate after larval dsRNA soaking plus feeding; assay type: in vivo, Aedes aegypti; details: larvae soaked 24 h in 0.5 μg/μL dsRNA, fed twice with agarose plug containing dsRNA; vs water control
Description: FIG. 12 is a flowchart illustration depicting introduction of dsRNA into mosquito larvae via soaking with different doses of “naked” dsRNA plus additional larvae feeding with food-containing dsRNA. Step a) 100 larvae from A. aegypti Rockefeller strain (3rd instar) were soaked for 24 hours with the respective dsRNAs (concentration range from 0.02-0.5 μg/μL) or only in water and were then fed 2 times with food plus agarose 2% containing dsRNA until they reach adult stage (Step b). Step c) The adults arising were allowed to copulate for 3-5 days. Step d) mosquitoes were fed with defibrinated sheep blood. Step e) after blood feeding 15 fully-engorged females were transferred into 3 small cages to be assayed for oviposition. Step f) the total number of laid eggs and the percentage of hatched eggs were counted. […] (FIG. 13A) The total number of laid eggs and the percentage of hatched eggs were counted (FIG. 13B). […]
as §4
To check the viability of the eggs the oviposition paper were kept to dry and embrionate for a period minimum of 5 days. […] The hatching rate (HR) for each treatment were calculated as follow: HR=total number of hatched larvae/total number of eggs oviposited). […]

[5] = test system: Argonaute-3 (AAEL007823) mRNA; test: qPCR analysis of Ago-3 mRNA expression after dsRNA treatment; assay type: in vivo, Aedes aegypti; details: vs water; for Ago3 mRNA levels: larvae soaked 24 h in dsRNA, 24 and 48 hours after the end of dsRNA treatment
Description: Third instar larvae were treated (in groups of 100 larvae) in a final volume of 3 mL of dsRNA solution in autoclaved water (0.5 μg/μL for sodium channel (AAEL008297), PgP (AAEL010379) and Ago3 (AAEL007823) dsRNA, or 0.1 μg/μL for CYP9J26 (JF924909.1). The control group was kept in 3 ml sterile water only. Larvae were soaked in the dsRNA solutions for 24 hr at 27° C., and then transferred into new containers (300 larvae/1500 mL of chlorine-free tap water), which were also maintained at 27° C., and were provided 6 mg/100 mL lab dog/cat diet (Purina Mills) suspended in water as a source of food on a daily basis. As pupae developed, they were transferred to individual vials to await eclosion and sex sorting. For bioassays purpose only females up to five days old were used. See Flowchart 1, FIG. 1 for detailed explanation of this experiment.
Total RNA was extracted from groups of five Ae. aegypti fourth instar larvae and early adult male/female Ae. aegypti, using TRIzol (Invitrogen, Carlsbad, Calif., USA) according to the manufacturer's instructions. RNA was treated with amplification grade DNase I (Invitrogen) and 1 μg was used to synthesize cDNA using a First Strand cDNA Synthesis kit (Invitrogen). PCR products were purified using a QIAquick PCR purification kit (Qiagen). The MEGAscript RNAi kit (Ambion) was then used for in vitro transcription and purification of dsRNAs. See Flowchart 4, FIG. 4 for detailed explanation production off dsRNA.
Approximately 1000 ng first-strand cDNA obtained as described previously was used as template. The qPCR reactions were performed using SYBR® Green PCR Master Mix (Applied Biosystems) following the manufacturer's instructions. […] Raw quantification cycle (Cq) values normalized against those of the tubulin and S7 standards were then used to calculate the relative expression levels in samples using the 2^−ΔΔct method [Livak & Schmittgen, (2001) Methods. […]

Molecule | mosquitoes dead (mortality) [1] | mosquitoes in the population resistant to deltamethrin ([2]; Rio de Janeiro (RJ) strain, at diagnostic dosage 2 μg/mL) | mosquitoes killed (mortality) ([2]; diagnostic dosage 2 μg/mL of deltamethrin, Rio de Janeiro strain adult females) | oviposition rate (total number of laid eggs) [3] | number of hatched eggs (hatchability) [4] | Ago3 mRNA expression ([5]; adult mosquitoes soaked with dsRNA as larvae) | Ago3 mRNA levels [5] | Ago3 mRNA levels ([5]; listed as dsRNA against Ago3)
CC1(C)[C@H](C(=O)O[C@H](C#N)c2cccc(Oc3ccccc3)c2)[C@@H]1C=C(Br)Br [deltamethrin] | 100% | 36.05% | 63.95% | – | – | – | – | –
Ago3: dsRNA targeting Argonaute-3 (AAEL007823), Example 1, SEQ ID NO: 1823 (nucleic acid, double stranded RNA) CCCCGTCGACGGCCACGAAGTTACGATCAAGATCATTTACAAGCGCAAACAGCGAATGAGCGAGAACATTCAATTCTACAACATTCTCTTCCAACGCATTATGAAAGTCCTGAAGATGGTCGAGATGGGTCGTAAGAACTTTGACCCCTCGGCCCCGAAACTGATTCCGCAGCATCGTCTGGAGATCTGGCCGGGATACGTTAGCGCTGTGGACGAATATGAGGGCGGCTTGATGTTGAATCTCGACGTGTCCCATCGTGTGCTGCTCCAGACGACGGTTTTGGATCACATCCGAACGCTGGCAAGGGCCAATCCCCAAGATTACAAAAACATGGCCACCAAATCGCTGCTGGGAGCCGTTATATTGACCCGA | – | – | – | no difference | 50% | reached normal levels | decreased mRNA levels | induce gene silencing
